Reference: the supplement of paper PMC9112550, “Optimization of the antimicrobial peptide Bac7 by deep mutational scanning” (BMC Biology, 2022)

Tested on: Escherichia coli TOP10
Test: shrunken log2 fold change of peptide-encoding DNA abundance (4.5 h post-induction vs induction); higher = less antimicrobial activity (less host growth inhibition)
Settings: time post-induction: 4.5 h; library: site-saturation at positions 5, 18, 19, 20
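Further: peptides expressed intracellularly from a pBAD plasmid library in pooled LB shake-flask culture, induced with 0.3% L-arabinose, DNA abundance read by NGS, three biological replicates, DESeq2 with apeglm shrinkage.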

Sequence: RRIRCRPPRLPRPRPRPERMPRP
- shrunken log2 fold change: -0.015

Sequence: RRIRPRPPRLPRPRPRPETWPRP
- shrunken log2 fold change: 0.1

Sequence: RRIRLRPPRLPRPRPRPINFPRP
- shrunken log2 fold change: -0.426

Sequence: RRIRMRPPRLPRPRPRPTGWPRP
- shrunken log2 fold change: 0.687

Sequence: RRIRQRPPRLPRPRPRPTAEPRP
- shrunken log2 fold change: 0.363

Sequence: RRIRTRPPRLPRPRPRPGNMPRP
- shrunken log2 fold change: -0.0393

Sequence: RRIRTRPPRLPRPRPRPRLWPRP
- shrunken log2 fold change: 0.154

Sequence: RRIRTRPPRLPRPRPRPFFFPRP
- shrunken log2 fold change: 0.0893

Sequence: RRIRQRPPRLPRPRPRPMIIPRP
- shrunken log2 fold change: 0.0698

Sequence: RRIRIRPPRLPRPRPRPEFNPRP
- shrunken log2 fold change: -0.0922

Sequence: RRIRTRPPRLPRPRPRPEGDPRP
- shrunken log2 fold change: 0.0354

Sequence: RRIRDRPPRLPRPRPRPPSNPRP
- shrunken log2 fold change: 0.137

Sequence: RRIRYRPPRLPRPRPRPEIGPRP
- shrunken log2 fold change: 0.066

Sequence: RRIRARPPRLPRPRPRPNWIPRP
- shrunken log2 fold change: 0.00102

Sequence: RRIRPRPPRLPRPRPRPHICPRP
- shrunken log2 fold change: -0.0442

Sequence: RRIRERPPRLPRPRPRPRIWPRP
- shrunken log2 fold change: 0.143

Sequence: RRIRQRPPRLPRPRPRPWKEPRP
- shrunken log2 fold change: -0.103

Sequence: RRIRKRPPRLPRPRPRPQGDPRP
- shrunken log2 fold change: 0.0739

Sequence: RRIRMRPPRLPRPRPRPCYGPRP
- shrunken log2 fold change: -0.534

Sequence: RRIRKRPPRLPRPRPRPMSVPRP
- shrunken log2 fold change: -0.39

Sequence: RRIRCRPPRLPRPRPRPGERPRP
- shrunken log2 fold change: 0.01

Sequence: RRIRTRPPRLPRPRPRPDGVPRP
- shrunken log2 fold change: -0.0136

Sequence: RRIRKRPPRLPRPRPRPWARPRP
- shrunken log2 fold change: 0.704

Sequence: RRIRFRPPRLPRPRPRPKTDPRP
- shrunken log2 fold change: -0.0282

Sequence: RRIRRRPPRLPRPRPRPHWAPRP
- shrunken log2 fold change: -0.17

Sequence: RRIRGRPPRLPRPRPRPFDKPRP
- shrunken log2 fold change: -0.663

Sequence: RRIRARPPRLPRPRPRPSAIPRP
- shrunken log2 fold change: 0.173

Sequence: RRIRMRPPRLPRPRPRPWFSPRP
- shrunken log2 fold change: -0.0415

Sequence: RRIRCRPPRLPRPRPRPWFWPRP
- shrunken log2 fold change: 0.189

Sequence: RRIRRRPPRLPRPRPRPNICPRP
- shrunken log2 fold change: 0.0828

Sequence: RRIRVRPPRLPRPRPRPHSTPRP
- shrunken log2 fold change: -0.418

Sequence: RRIRYRPPRLPRPRPRPGDQPRP
- shrunken log2 fold change: 0.0121

Sequence: RRIRYRPPRLPRPRPRPVKCPRP
- shrunken log2 fold change: -1.32

Sequence: RRIRQRPPRLPRPRPRPFESPRP
- shrunken log2 fold change: -0.00719

Sequence: RRIRARPPRLPRPRPRPINCPRP
- shrunken log2 fold change: -0.0513

Sequence: RRIRTRPPRLPRPRPRPSRYPRP
- shrunken log2 fold change: -0.23

Sequence: RRIRTRPPRLPRPRPRPPAKPRP
- shrunken log2 fold change: 1.11

Sequence: RRIRHRPPRLPRPRPRPSMQPRP
- shrunken log2 fold change: -0.124

Sequence: RRIRVRPPRLPRPRPRPHVRPRP
- shrunken log2 fold change: -0.0188

Sequence: RRIRGRPPRLPRPRPRPFPCPRP
- shrunken log2 fold change: -0.0294

Sequence: RRIRLRPPRLPRPRPRPQTFPRP
- shrunken log2 fold change: -0.118

Sequence: RRIRRRPPRLPRPRPRPPKPPRP
- shrunken log2 fold change: 0.824

Sequence: RRIRWRPPRLPRPRPRPDSDPRP
- shrunken log2 fold change: 0.0473

Sequence: RRIRVRPPRLPRPRPRPNEWPRP
- shrunken log2 fold change: 0.0106

Sequence: RRIRMRPPRLPRPRPRPKMCPRP
- shrunken log2 fold change: 0.0261

Sequence: RRIRERPPRLPRPRPRPQHKPRP
- shrunken log2 fold change: -0.467

Sequence: RRIRHRPPRLPRPRPRPPYGPRP
- shrunken log2 fold change: 0.0267

Sequence: RRIRNRPPRLPRPRPRPMLWPRP
- shrunken log2 fold change: 0.0244

Sequence: RRIRGRPPRLPRPRPRPAWGPRP
- shrunken log2 fold change: 0.268

Sequence: RRIRHRPPRLPRPRPRPAIFPRP
- shrunken log2 fold change: -0.00284

Sequence: RRIRIRPPRLPRPRPRPSDAPRP
- shrunken log2 fold change: -0.0664

Sequence: RRIRFRPPRLPRPRPRPCIMPRP
- shrunken log2 fold change: -0.953

Sequence: RRIRARPPRLPRPRPRPFFLPRP
- shrunken log2 fold change: -0.0057

Sequence: RRIRNRPPRLPRPRPRPTWPPRP
- shrunken log2 fold change: 0.77

Sequence: RRIRCRPPRLPRPRPRPFGGPRP
- shrunken log2 fold change: 0.0285

Sequence: RRIRMRPPRLPRPRPRPQGYPRP
- shrunken log2 fold change: 0.0234

Sequence: RRIRWRPPRLPRPRPRPLKWPRP
- shrunken log2 fold change: 0.488

Sequence: RRIRERPPRLPRPRPRPEMGPRP
- shrunken log2 fold change: -0.116

Sequence: RRIRARPPRLPRPRPRPCREPRP
- shrunken log2 fold change: 0.0197

Sequence: RRIRMRPPRLPRPRPRPECTPRP
- shrunken log2 fold change: 2.91

Sequence: RRIRFRPPRLPRPRPRPRYMPRP
- shrunken log2 fold change: -0.689

Sequence: RRIRARPPRLPRPRPRPTGIPRP
- shrunken log2 fold change: 0.0125

Sequence: RRIRKRPPRLPRPRPRPFMNPRP
- shrunken log2 fold change: -0.0366

Sequence: RRIRCRPPRLPRPRPRPYDWPRP
- shrunken log2 fold change: -0.204

Sequence: RRIRDRPPRLPRPRPRPVKEPRP
- shrunken log2 fold change: -0.0586

Sequence: RRIRSRPPRLPRPRPRPNYHPRP
- shrunken log2 fold change: -0.742

Sequence: RRIRVRPPRLPRPRPRPLGNPRP
- shrunken log2 fold change: -0.424

Sequence: RRIRLRPPRLPRPRPRPHTYPRP
- shrunken log2 fold change: -0.257

Sequence: RRIRWRPPRLPRPRPRPYMEPRP
- shrunken log2 fold change: -0.101

Sequence: RRIRFRPPRLPRPRPRPTQWPRP
- shrunken log2 fold change: 0.267

Sequence: RRIRSRPPRLPRPRPRPGHAPRP
- shrunken log2 fold change: 0.205

Sequence: RRIRPRPPRLPRPRPRPTKFPRP
- shrunken log2 fold change: -0.0516

Sequence: RRIRIRPPRLPRPRPRPNESPRP
- shrunken log2 fold change: -0.243

Sequence: RRIRRRPPRLPRPRPRPLMYPRP
- shrunken log2 fold change: 0.0279

Sequence: RRIRVRPPRLPRPRPRPEDWPRP
- shrunken log2 fold change: 0.354

Sequence: RRIRQRPPRLPRPRPRPPHTPRP
- shrunken log2 fold change: 1.08

Sequence: RRIRLRPPRLPRPRPRPGPAPRP
- shrunken log2 fold change: 0.972

Sequence: RRIRNRPPRLPRPRPRPMGCPRP
- shrunken log2 fold change: -0.187

Sequence: RRIRMRPPRLPRPRPRPGNDPRP
- shrunken log2 fold change: 1.19

Sequence: RRIRQRPPRLPRPRPRPVCPPRP
- shrunken log2 fold change: -0.0461

Sequence: RRIRYRPPRLPRPRPRPIHYPRP
- shrunken log2 fold change: -0.655

Sequence: RRIRYRPPRLPRPRPRPRMFPRP
- shrunken log2 fold change: -0.306

Sequence: RRIRNRPPRLPRPRPRPQWLPRP
- shrunken log2 fold change: -0.317

Sequence: RRIRLRPPRLPRPRPRPQDPPRP
- shrunken log2 fold change: -0.101

Sequence: RRIRTRPPRLPRPRPRPNWWPRP
- shrunken log2 fold change: 0.188

Sequence: RRIRKRPPRLPRPRPRPYMMPRP
- shrunken log2 fold change: -0.103

Sequence: RRIRARPPRLPRPRPRPILFPRP
- shrunken log2 fold change: -0.166

Sequence: RRIRLRPPRLPRPRPRPFMDPRP
- shrunken log2 fold change: -0.361

Sequence: RRIRLRPPRLPRPRPRPLSFPRP
- shrunken log2 fold change: -0.15

Sequence: RRIRSRPPRLPRPRPRPFIHPRP
- shrunken log2 fold change: -0.154

Sequence: RRIRNRPPRLPRPRPRPKHWPRP
- shrunken log2 fold change: 0.0916

Sequence: RRIRPRPPRLPRPRPRPKGYPRP
- shrunken log2 fold change: -0.13

Sequence: RRIRMRPPRLPRPRPRPGEAPRP
- shrunken log2 fold change: 2.18

Sequence: RRIRTRPPRLPRPRPRPMKCPRP
- shrunken log2 fold change: -0.0722

Sequence: RRIRDRPPRLPRPRPRPQTNPRP
- shrunken log2 fold change: 0.118

Sequence: RRIRIRPPRLPRPRPRPICFPRP
- shrunken log2 fold change: -0.152

Sequence: RRIRIRPPRLPRPRPRPGHMPRP
- shrunken log2 fold change: 0.0184

Sequence: RRIRSRPPRLPRPRPRPKFCPRP
- shrunken log2 fold change: -0.471

Sequence: RRIRHRPPRLPRPRPRPSKRPRP
- shrunken log2 fold change: 0.0594

Sequence: RRIRKRPPRLPRPRPRPIDFPRP
- shrunken log2 fold change: 0.131

Sequence: RRIRERPPRLPRPRPRPIHNPRP
- shrunken log2 fold change: -0.659

Sequence: RRIRWRPPRLPRPRPRPRQGPRP
- shrunken log2 fold change: 0.582

Sequence: RRIRQRPPRLPRPRPRPSTAPRP
- shrunken log2 fold change: 0.0789

Sequence: RRIRFRPPRLPRPRPRPPPKPRP
- shrunken log2 fold change: 1.58

Sequence: RRIRFRPPRLPRPRPRPVQYPRP
- shrunken log2 fold change: -0.445

Sequence: RRIRWRPPRLPRPRPRPVHWPRP
- shrunken log2 fold change: 0.138

Sequence: RRIRERPPRLPRPRPRPEYDPRP
- shrunken log2 fold change: -0.00663

Sequence: RRIRCRPPRLPRPRPRPKIIPRP
- shrunken log2 fold change: -0.932

Sequence: RRIRKRPPRLPRPRPRPCNAPRP
- shrunken log2 fold change: -0.0429

Sequence: RRIRYRPPRLPRPRPRPWHAPRP
- shrunken log2 fold change: -0.25

Sequence: RRIRTRPPRLPRPRPRPWALPRP
- shrunken log2 fold change: -0.23

Sequence: RRIRSRPPRLPRPRPRPFPPPRP
- shrunken log2 fold change: -0.0275

Sequence: RRIRERPPRLPRPRPRPYNNPRP
- shrunken log2 fold change: -0.822

Sequence: RRIRTRPPRLPRPRPRPNVDPRP
- shrunken log2 fold change: -0.625

Sequence: RRIRIRPPRLPRPRPRPDKMPRP
- shrunken log2 fold change: -0.473

Sequence: RRIRERPPRLPRPRPRPYYSPRP
- shrunken log2 fold change: -0.0755

Sequence: RRIRARPPRLPRPRPRPCRYPRP
- shrunken log2 fold change: -0.215

Sequence: RRIRWRPPRLPRPRPRPQKKPRP
- shrunken log2 fold change: 0.0854

Sequence: RRIRERPPRLPRPRPRPGMDPRP
- shrunken log2 fold change: -0.696

Sequence: RRIRLRPPRLPRPRPRPVQNPRP
- shrunken log2 fold change: 0.0224

Sequence: RRIRLRPPRLPRPRPRPIYDPRP
- shrunken log2 fold change: -1

Sequence: RRIRTRPPRLPRPRPRPNKAPRP
- shrunken log2 fold change: -0.0944

Sequence: RRIRLRPPRLPRPRPRPGDVPRP
- shrunken log2 fold change: 0.0737

Sequence: RRIRERPPRLPRPRPRPKYRPRP
- shrunken log2 fold change: -0.00726

Sequence: RRIRCRPPRLPRPRPRPKQGPRP
- shrunken log2 fold change: 0.261
